Data on two molecules can be found in patent US20210347908A1 (ELPISCIENCE SUZHOU BIOPHARMA, published 2021).

Where two headings read alike, the source gives them in different places.

The target in test [1] is T1, full length cyno SIRPα stably expressed on CHOK1 cells (cynomolgus monkey, UniProt A0A2K5VYQ9 31-507).
T1 construct: whole, on cells; also called CHOK1-cyno SIRPα-2A2 cells; CHOK1-cyno SIRPα
T1 sequence: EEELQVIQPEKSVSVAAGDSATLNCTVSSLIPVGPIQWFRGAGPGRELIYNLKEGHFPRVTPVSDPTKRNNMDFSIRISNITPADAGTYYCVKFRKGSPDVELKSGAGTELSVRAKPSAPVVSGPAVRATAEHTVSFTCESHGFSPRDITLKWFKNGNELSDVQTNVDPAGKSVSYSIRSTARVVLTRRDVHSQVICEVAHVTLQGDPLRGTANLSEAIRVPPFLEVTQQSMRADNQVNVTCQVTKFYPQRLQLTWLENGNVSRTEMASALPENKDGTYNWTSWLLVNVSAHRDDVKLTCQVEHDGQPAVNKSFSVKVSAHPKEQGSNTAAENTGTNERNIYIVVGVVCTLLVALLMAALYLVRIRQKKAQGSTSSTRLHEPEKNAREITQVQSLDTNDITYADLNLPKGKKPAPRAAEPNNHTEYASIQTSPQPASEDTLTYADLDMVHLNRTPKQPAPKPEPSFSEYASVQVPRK
Kind of test: FACS on CHOK1 cells. As for the experimental part: (§1) Species cross reactivity of the purified hybridoma antibodies against human, cyno and mouse SIRPα was determined by FACS assay using CHOK1-human SIRPα v1-1B4 cells, CHOK1-cyno SIRPα-2A2 cells, and CHOK1-C57BL/6 mouse SIRPα-2.22 cells, which stably expressing SIRPα protein. Briefly the antibodies were incubated with 2×10⁵ target cells at 4° C. for 1 hour. After washing, fluorescence labeled anti-mouse or anti-human IgG 2nd antibody (Life Technologies) was added and incubated at 4° C. for 1 hour. Geometric median fluorescence intensity was detected and EC₅₀ was calculated. In particular, it is noted, in contrast to the other antibodies tested in the same experiment, 060 cannot bind with cyno SIRPα and 035 has cross reactivity against C57BL/6 mouse SIRPα.

In test [2] the target is T2, full length human SIRPα v1 stably expressed on CHOK1 cells (human, UniProt P78324 31-504).
T2 construct: whole, on cells; also called CHOK1-human SIRPα v1-1B4 cells; CHOK1-human SIRPα v1
Kind of test: FACS on CHOK1 cells. As for the experimental part:
as §1

For test [3], the target named is T3, full length C57BL/6 mouse SIRPα stably expressed on CHOK1 cells (mouse (C57BL/6), UniProt P97797 32-513).
T3 construct: whole, on cells; also called CHOK1-C57BL/6 mouse SIRPα-2.22 cells
T3 sequence (looked up): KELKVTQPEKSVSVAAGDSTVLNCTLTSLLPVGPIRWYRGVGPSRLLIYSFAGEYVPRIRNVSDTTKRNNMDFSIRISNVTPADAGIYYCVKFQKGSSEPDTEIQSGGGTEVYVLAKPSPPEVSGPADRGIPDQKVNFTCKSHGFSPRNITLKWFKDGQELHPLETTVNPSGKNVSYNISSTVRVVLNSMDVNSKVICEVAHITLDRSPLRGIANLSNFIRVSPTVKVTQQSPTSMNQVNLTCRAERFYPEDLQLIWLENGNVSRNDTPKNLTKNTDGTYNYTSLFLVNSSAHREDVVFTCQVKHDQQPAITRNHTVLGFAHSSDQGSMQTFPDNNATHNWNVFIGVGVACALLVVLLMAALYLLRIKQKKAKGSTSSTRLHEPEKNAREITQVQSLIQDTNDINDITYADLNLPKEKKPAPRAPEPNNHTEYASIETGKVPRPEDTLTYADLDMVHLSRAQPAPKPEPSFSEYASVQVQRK
Briefly: FACS on CHOK1 cells. As for the experimental part:
as §1

For test [4], the target named is T4, Fc tagged human SIRPβ ECD recombinant protein (human, UniProt O00241 30-371).
T4 construct: range 1-371; cloned range includes the signal peptide; also called hSIRPβ; not shown: human IgG Fc region (hFc) of the pCPC vector
Kind of test: ELISA. In general terms: In an ELISA, binding on a coated surface is turned into a signal by an enzyme label.

In test [5] the target is T5, Fc tagged human SIRPγ ECD recombinant protein (human, UniProt Q9P1W8 29-360).
T5 construct: range 1-360; cloned range includes the signal peptide; also called hSIRPγ; not shown: human IgG Fc region (hFc) of the pCPC vector
Kind of test: ELISA.

The target in test [6] is T6, 6×His tagged human SIRPα v8 ECD recombinant protein (human).
T6 construct: extracellular domain; bought; also called hSIRPα V8
Briefly: ELISA.

The target of test [7] is T7, Fc tagged human SIRPα v1 ECD recombinant protein (human, UniProt P78324 31-370).
T7 construct: range 1-370; cloned range M1-R370 includes the signal peptide; also called hSIRPα V1; not shown: human IgG Fc region (hFc) of the pCPC vector
Briefly: ELISA.

Test [8] concerns the target T8, Fc tagged human SIRPα v2 ECD recombinant protein (human).
T8 construct: range 1-369; cloned range M1-R369 includes the signal peptide; also called hSIRPα V2
Kind of test: ELISA.

In test [9] the target is T9, biotin labeled soluble human SIRPα v1 ECD recombinant protein (human, UniProt P78324 31-373, biotin labeled).
T9 construct: extracellular domain
Kind of test: competitive ELISA, hSIRPα/CD47 blocking.

The target of test [10] is T10, 6×His tagged human SIRPα v1 ECD recombinant protein (human, UniProt P78324 31-373).
T10 construct: extracellular domain; bought; also called hSIRPα V1 (SPR antigen)
Kind of test: SPR (Biacore), antibody captured. As for the experimental part:
Anti-SIRPα chimeric antibodies were characterized for binding affinity against human SIRPα v1, human SIRPα v2 and C57BL/6 mouse SIRPα using Biacore (GE). Briefly the antibodies to be tested were captured to CM5 chip (GE) using Human Antibody Capture Kit (GE). The antigens of 6×His tagged human SIRPα v1, human SIRPα v2 and C57BL/6 mouse SIRPα ECD recombinant proteins were serially diluted for multiple doses and injected at 30 μl/min for 180 s. Buffer flow was maintained for dissociation of 400 s. 3 M MgCl₂ was used for chip regeneration. The association and dissociation curves were fit with 1:1 binding model, and the Ka/Kd/KD values for each antibody were calculated.
On the technique in general: SPR reads the build-up and loss of mass on a sensor chip optically.

Test [11] deals with T10, 6×His tagged human SIRPα v1 ECD …. Briefly: SPR (Biacore).
The target in test [12] is T7, Fc tagged human SIRPα v1 ECD …. Briefly: ELISA. How it is done: (§2) Binding specificity of the purified hybridoma antibodies against SIRP family members was detected by ELISA assay using recombinant proteins of Fc tagged human SIRPα v1 ECD, human SIRPα v2 ECD, human SIRPβ ECD and human SIRPγ ECD. Briefly the antibodies were incubated with ELISA microplate coated antigens at 37° C. for 1 hour. After washing, horseradish peroxidase (HRP) labeled anti-mouse or anti-human IgG 2nd Ab (Sigma) was added and incubated at 37° C. for 1 hour. Then, 100 μl/well of TMB solution (Biotechnology) was added. After incubation for 15 minutes at room temperature, the reaction was stopped by the addition of 50 μl of 1N HCl. OD 450 nm was read and EC₅₀ was calculated. Other than 060 and HEFLB, all of the antibodies as tested can bind with both human SIRPα v1 and SIRPα v2. 060 and HEFLB can bind with human SIRPα v1 but not v2. Other than 055, all of the antibodies as tested can bind with human SIRPβ. In comparison with other known anti-SIRPα antibodies, only 022, 035 and 050 can bind with human SIRPγ weakly.
This is another data set of the same source.

For test [13], the target named is T8, Fc tagged human SIRPα v2 ECD …. Briefly: ELISA. How it is done: as §2
The source holds these as a separate data set.

The target in test [14] is T9, biotin labeled soluble human SIRPα v1 …. Briefly: competitive ELISA; competitor 050. As for the experimental part: (§3) Competitive ELISA assay was used for epitope binning of 9 functional antibodies. Briefly excessive competitor antibody and biotin labeled soluble human SIRPα v1 ECD recombinant protein were co-incubated with ELISA microplate coated antibody. After washing, HRP-SA was added and incubated at 37° C. for 1 hour. Then, […] of TMB solution (Biotechnology) was added. After incubation for 15 minutes at room temperature, the reaction was stopped by the addition of […] of 1N HCl. OD 450 nm was read. Competition ratio was calculated. The antibodies that can compete each other for binding to SIRPα have the similar binding epitope.

Test [15] shares this target. Kind of test: competitive ELISA; competitor 035. How it is done:
as §3

The target is the same in test [16]. Briefly: competitive ELISA; competitor 29-AM4-5. How it is done: as §3
The target is the same in test [17]. Kind of test: competitive ELISA; competitor 074. As for the experimental part:
as §3

Test [18] shares this target. Kind of test: competitive ELISA; competitor 055. How it is done:
as §3

For test [19] the target is unchanged. Kind of test: competitive ELISA; competitor KWAR23. How it is done:
as §3

Test [20] shares this target. Kind of test: competitive ELISA; competitor 032. As for the experimental part: as §3
The target is the same in test [21]. Kind of test: competitive ELISA; competitor 001. How it is done:
as §3

The target is the same in test [22]. Kind of test: competitive ELISA; competitor 022. How it is done:
as §3

For test [23] the target is unchanged. Kind of test: competitive ELISA; competitor 060. How it is done: as §3
The target is the same in test [24]. Briefly: competitive ELISA; competitor HEFLB. As for the experimental part:
as §3

Test [25] has the same target. Briefly: competitive ELISA; competitor 002. As for the experimental part:
as §3

T10 sequence (P78324 other isoform, or with tags, fused parts or gaps): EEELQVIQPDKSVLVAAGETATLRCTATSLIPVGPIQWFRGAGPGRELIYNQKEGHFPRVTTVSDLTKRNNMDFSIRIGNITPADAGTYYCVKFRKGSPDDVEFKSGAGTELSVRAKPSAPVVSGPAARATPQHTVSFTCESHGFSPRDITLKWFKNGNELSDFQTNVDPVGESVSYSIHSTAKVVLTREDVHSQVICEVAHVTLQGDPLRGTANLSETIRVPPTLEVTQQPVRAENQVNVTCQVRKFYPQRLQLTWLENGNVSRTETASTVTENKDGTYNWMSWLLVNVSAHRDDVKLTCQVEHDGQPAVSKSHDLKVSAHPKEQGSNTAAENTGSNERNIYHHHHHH
T9 sequence (P78324 31-373): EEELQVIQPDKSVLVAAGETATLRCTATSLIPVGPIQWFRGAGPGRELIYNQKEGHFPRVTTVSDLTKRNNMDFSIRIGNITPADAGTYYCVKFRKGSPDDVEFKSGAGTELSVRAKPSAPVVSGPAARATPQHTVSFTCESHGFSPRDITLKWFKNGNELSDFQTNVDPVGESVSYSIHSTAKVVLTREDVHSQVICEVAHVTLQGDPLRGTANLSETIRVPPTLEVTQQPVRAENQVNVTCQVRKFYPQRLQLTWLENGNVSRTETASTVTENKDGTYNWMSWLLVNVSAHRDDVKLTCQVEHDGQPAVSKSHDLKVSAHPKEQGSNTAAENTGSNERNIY
T7 sequence (P78324 31-370 limits assumed): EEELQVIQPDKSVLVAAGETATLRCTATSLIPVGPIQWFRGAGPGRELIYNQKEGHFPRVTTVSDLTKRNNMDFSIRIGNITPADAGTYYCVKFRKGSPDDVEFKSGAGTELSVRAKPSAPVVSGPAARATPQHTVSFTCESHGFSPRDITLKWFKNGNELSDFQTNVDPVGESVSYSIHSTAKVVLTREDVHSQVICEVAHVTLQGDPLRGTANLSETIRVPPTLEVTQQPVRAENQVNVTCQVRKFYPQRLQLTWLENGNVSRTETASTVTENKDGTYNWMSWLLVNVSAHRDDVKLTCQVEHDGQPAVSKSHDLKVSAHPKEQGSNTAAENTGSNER
T5 sequence (Q9P1W8 29-360 limits assumed, form in doubt): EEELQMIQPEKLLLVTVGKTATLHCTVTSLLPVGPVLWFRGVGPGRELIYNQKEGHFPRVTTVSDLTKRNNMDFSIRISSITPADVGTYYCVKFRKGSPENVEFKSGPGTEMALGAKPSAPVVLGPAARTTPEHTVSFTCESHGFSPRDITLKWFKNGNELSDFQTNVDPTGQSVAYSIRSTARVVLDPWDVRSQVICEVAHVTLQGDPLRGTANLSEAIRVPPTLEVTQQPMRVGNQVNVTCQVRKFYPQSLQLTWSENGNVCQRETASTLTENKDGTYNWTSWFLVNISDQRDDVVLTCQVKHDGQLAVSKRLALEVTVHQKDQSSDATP
T4 sequence (O00241 30-371 limits assumed, form in doubt): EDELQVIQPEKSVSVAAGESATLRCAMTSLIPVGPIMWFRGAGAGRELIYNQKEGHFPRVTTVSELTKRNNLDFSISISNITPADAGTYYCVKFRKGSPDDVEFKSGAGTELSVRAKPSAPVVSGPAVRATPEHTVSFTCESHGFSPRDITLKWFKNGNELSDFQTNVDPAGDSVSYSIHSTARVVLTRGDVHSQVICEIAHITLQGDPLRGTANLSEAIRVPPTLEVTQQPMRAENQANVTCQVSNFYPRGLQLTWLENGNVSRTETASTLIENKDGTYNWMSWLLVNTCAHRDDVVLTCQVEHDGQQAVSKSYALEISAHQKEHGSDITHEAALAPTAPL

B1: humanized antibody hu035.02 (antibody, V domains shown)
VH: QIQLVQSGSELKKPGASVKVSCRARGYTLTDYAMNWVRQAPGQGLEWMGFINTYTGEPTYAQGFKGRFVFSLDTSVSTAYLQIGSLKAEDTAVYYCARTRGYYDFDGGAFDYWGQGTLVTVSS
VL: DIQMTQSPSSLSASVGDRVTITCRASQNVGTHLAWYQQKPGKAPKSLIYSASYRYIGVPSRFSGSGSGTDFTLTISSLQPEDFATYYCQQYNTYPLTFGQGTKLEIK
For B1, the EC50 – broadly, the concentration that produces a half-maximal response – in test [1] worked out at 0.29 nM; in [2], 0.97 nM; in test [4], 0.2 nM; in test [5] it was 6.24 nM; in test [6], 0.23 nM; in [7], 0.16 nM. Also, the 50% effective concentration (EC50) in [8] turned out to be 0.16 nM. For the same molecule, in test [3], the “MFI at 2 ug/ml” value stood at 549 MFI. The IC50 (as a rule, the concentration needed to halve the response being measured) in test [9] stood at 1.74 nM. In addition, the Kd in test [10] and in test [11] was 1.64 nM in each case. In addition, the koff (as a rule, the first-order rate constant of dissociation) in test [10] amounted to 0.00017 s⁻¹. In addition, the kon (commonly the second-order rate constant of association) in test [10] is 104000 M⁻¹ s⁻¹.

B2: Antibody 055 (hybridoma antibody) (antibody, V domains shown)
VH: EVKLVESEGGLVQPGDSMKLSCTASGFTFSDYFMTWIRQVPEKGLEWIANVNYDGRSTYYLDSLKSRFIISRDNANNILYLQMSSLKSEDTATYYCAREGSQTPLYAVDYWGQGTSVTVSS
VL: DIVMTQSQKFMSTTVGDRVNITCKASQNVGTAVAWYQQKPGQSPKLLIYLASNRYTGVPDRFTGSGSGTDFTLTVSDMRSEDLADYFCQQYSIYPFTFGSGTKLEIK
notes: mouse hybridoma antibody
For the molecule B2, the EC50 came out at 0.04 nM in test [12], 0.04 nM in [13] and 1.2 nM in test [2]. Further, the “MFI at 10 nM” value in test [1] was determined as 4670 MFI. Besides, the binding result in test [3] is “no binding (tested: 100 nM)”. The “% Competition” value is 7% in [14]; 8% in test [15]; 14% in [16]; 3% in [17]; 91% in [18]; 45% in test [19]. Further, the “% Competition” value in [20] is -1%; in [21] it was -3%; in [22], 2%; in [23], 8%; in [24], -10%; in test [25], -8%.
